Results: patent US12379386B2, “Antibodies to 25-hydroxyvitamin D2 and D3 for detecting total 25-hydroxyvitamin D” (Siemens Healthcare Diagnostics Inc., priority 2011, dated 2025)

How the values were obtained:
Assay type in all cases: binding
[1] = Antibody displacement assay, 10H9 supernatant, competitor 25-hydroxyvitamin D3; settings: for optical density at 450 nm: 25 OH-D3 0.4 μg/mL, coat Vit D C22-Diaminobutane-Suberoyl-KLH 50 ng/mL
Experimental: (§1) Following isolation of hybridoma clones, studies were conducted to determine the relative ability of the antibodies to bind to both 25-hydroxyvitamin D2 and 25-hydroxyvitamin D3. To assess this, antibody displacement assays were conducted to determine the degree to which binding between vitamin D-C22 BSA and a reactive antibody raised against the antigen (10H9) could be disrupted by the presence of 25-hydroxyvitamin D2 or 25-hydroxyvitamin D3. Cell culture supernatant from the 10H9 hybridoma cell lines producing antibodies reactive to vitamin D-C22 BSA were coincubated in the presence or absence of 25-hydroxyvitamin D2 or 25-hydroxyvitamin D3 on microtiter plates coated with vitamin D-C22 KLH for 1 hour. After washing the plates, goat anti-mouse IgG-HRPO was added and incubated for 30 minutes. Plates were washed and then incubated with tetramethyl benzidine (TMB). The generated color was stopped using 1N sulfuric acid and the optical density was measured at 450 nm.

[2] = Displacement assay with purified coated 10H9 and alkaline phosphatase tracer, competitor 25-hydroxyvitamin D3; settings: for optical density at 405 nm: MAb coat 1 ug/mL
Experimental: (§2) Next, displacement experiments were conducted using purified antibody, rather than cell supernatant. In this experiment, the antibody of interest was coated directly on the microtiter plate via a two-hour incubation. Coated plates were washed and then coincubated with either 25-hydroxyvitamin D2 or 25-hydroxyvitamin D3 in the presence of alkaline phosphatase-conjugated vitamin D-C22 BSA. After 30 minutes the plates were washed and color was developed by adding the substrate p-nitrophenyl phosphate (PNPP). Optical density colored solution was measured at 405 nm.

[3] = Antibody displacement assay, 10H9 supernatant, competitor 25-hydroxyvitamin D2; settings: for optical density at 450 nm: 25 OH-D2 0.4 μg/mL, coat Vit D C22-Diaminobutane-Suberoyl-KLH 50 ng/mL
Experimental: as §1

[4] = Displacement assay with purified coated 10H9 and alkaline phosphatase tracer, competitor 25-hydroxyvitamin D2; settings: for optical density at 405 nm: MAb coat 1 ug/mL
Experimental: as §2

[5] = test system: Vit D C22-Diaminobutane-Suberoyl-KLH; assay: 10H9 hybridoma supernatant ELISA on coated plate, no competing antigen; settings: Ag 0, coat 50 ng/mL
Experimental: as §1

B1: 10H9: murine monoclonal antibody from the 10H9 hybridoma, raised against vitamin D-C22 BSA; binds 25-hydroxyvitamin D2 and D3 (antibody, V domains shown)
VH: VQLLESGPELVKPGASMKISCKASGYSFTDYTMNWVKQSHGKNLEWIGLINPYNGFTIYNQKFKGKATLTVDKSSSTAYMELLSLTSEDSAVYYFIRAHYDGRVFWGQGTTLTVSS
VL: CELVMTQSPLSLPVSLGDQASVSCRSSQSLVHSNGNTYLHRYLQKPGQSPKLLIYQVSNRFSGVPDRFSGSGSGTDFTLKITRVEAEDLGVYFCSQITHFPPTFGGGTKLEIKR
modifications: Description of Unknown: 10H9 monoclonal antibody heavy chain variable region polypeptide; Description of Unknown: 10H9 monoclonal antibody light chain variable region polypeptide
- disruption of antibody binding by coincubation ([1]; 10H9 supernatant, 25-hydroxyvitamin D3): disrupted in a concentration-dependent manner
- optical density at 450 nm ([1]; supernatant dilution 1:4): 0.384
- optical density at 450 nm ([1]; supernatant dilution 1:16): 0.176
- optical density at 450 nm ([1]; supernatant dilution 1:64): 0.105
- optical density at 450 nm ([1]; supernatant dilution 1:256): 0.090
- optical density at 405 nm ([2]; 25OH-VIT D3 0 ng/ml): 1.213
- optical density at 405 nm ([2]; 25OH-VIT D3 5 ng/ml): 1.083
- optical density at 405 nm ([2]; 25OH-VIT D3 10 ng/ml): 0.800
- optical density at 405 nm ([2]; 25OH-VIT D3 25 ng/ml): 0.519
- optical density at 405 nm ([2]; 25OH-VIT D3 100 ng/ml): 0.115
- optical density at 405 nm ([2]; 25OH-VIT D3 200 ng/ml): 0.089
- optical density at 405 nm ([2]; 25OH-VIT D3 400 ng/ml): 0.077
- optical density at 405 nm ([2]; 25OH-VIT D3 1000 ng/ml): 0.069
- disruption of 10H9 binding to vitamin D-C22 BSA by coincubation ([2]; purified antibody, 25-hydroxyvitamin D3): disrupted in a concentration-dependent manner
- disruption of antibody binding by coincubation ([3]; 10H9 supernatant, 25-hydroxyvitamin D2): disrupted in a concentration-dependent manner
- optical density at 450 nm ([3]; supernatant dilution 1:4): 0.323
- optical density at 450 nm ([3]; supernatant dilution 1:16): 0.154
- optical density at 450 nm ([3]; supernatant dilution 1:64): 0.097
- optical density at 450 nm ([3]; supernatant dilution 1:256): 0.086
- optical density at 405 nm ([4]; 25OH-VIT D2 0 ng/ml): 1.277
- optical density at 405 nm ([4]; 25OH-VIT D2 5 ng/ml): 1.189
- optical density at 405 nm ([4]; 25OH-VIT D2 10 ng/ml): 1.007
- optical density at 405 nm ([4]; 25OH-VIT D2 25 ng/ml): 0.771
- optical density at 405 nm ([4]; 25OH-VIT D2 100 ng/ml): 0.106
- optical density at 405 nm ([4]; 25OH-VIT D2 200 ng/ml): 0.080
- optical density at 405 nm ([4]; 25OH-VIT D2 400 ng/ml): 0.069
- optical density at 405 nm ([4]; 25OH-VIT D2 1000 ng/ml): 0.063
- disruption of 10H9 binding to vitamin D-C22 BSA by coincubation ([4]; purified antibody, 25-hydroxyvitamin D2): disrupted in a concentration-dependent manner
- optical density at 450 nm ([5]; supernatant dilution 1:4): 1.997
- optical density at 450 nm ([5]; supernatant dilution 1:16): 1.244
- optical density at 450 nm ([5]; supernatant dilution 1:64): 0.672
- optical density at 450 nm ([5]; supernatant dilution 1:256): 0.313
